Data: patent publication US20160244527A1 (AFFITECH RESEARCH, published 2016)

What was measured:
[1] = target: T1, CXC chemokine receptor 4 (CXCR4), human (human, UniProt P61073 1-352); experiment: EasyCyte flow cytometry, 0.5 µg scFv on 1x10^5 CXCR4-transfected versus non-transfected HEK293T cells; anti-cMyc and RPE goat anti-mouse IgG detection
T1 construct: whole, on cells; also called human CXCR4; fusin
Description: The DT40+CXCR4, HEK293+CXCR4, DT40 and HEK293 cells were harvested from culture flasks, washed 2 times with PBS (400×g, 5 min, 4° C.) and resuspended in PBS containing 0.2% BSA and 0.09% NaN₃. 1×10⁵ cells per well were aliquoted into V-shaped 96-well plates (Greiner Bio-One, Frikenhausen, Germany). The cells were centrifuged (400×g, 5 min, 4° C.) and resuspended in 50 μl ScFvs (10 μg/ml) in PBS containing 0.2% BSA and 0.09% NaN₃. […] After 1 hour incubation (4° C.), the cells were washed three times with 100 μl PBS with 0.2% BSA and 0.09% NaN₃ and incubated for 30 minutes at 4° C. with RPE conjugated goat anti-mouse IgG (F0479, Dako, Denmark) diluted to 5 μg/ml in PBS with 0.2% BSA and 0.09% NaN₃. Cells were washed, resuspended in 200 μl PBS with 0.2% BSA and 0.09% NaN₃, and transferred to a U-shaped 96 well Costar (Corning, Schiphol-Rijik, The Netherlands) plate for flow cytometry using an Easy Cyte device (Guava Technologies, Hayward, Calif., USA).

[2] = target: T2, monkey (Macaca mulatta) CXCR4 (monkey (Macaca mulatta), UniProt P79394 1-352); experiment: EasyCyte flow cytometry on HEK293T/17 cells transiently transfected with Macaca mulatta CXCR4, Fugene without DNA as negative control; scFv level according to the example, amount not given
T2 construct: whole, on cells; also called monkey CXCR4; monkey antigen
Description: FACS-binding analyses (EasyCyte) were performed using HEK-293 cells transiently transfected with plasmids encoding either, mouse (Gene bank accession number BC031665) or monkey (Macaca mulatta) CXCR4 (NCBI Accession number NP_001036110). Two experiments were performed, one using a-cMyc and PE-labelled goat anti-mouse IgG antibody, the second using a directly conjugated RPE-c-Myc antibody for detection. In addition, cross-reactivity on IgG level was analysed. In the latter case, antibody binding was detected with PE-conjugated goat anti-human IgG antibody.

[3] = target: T1, CXC chemokine receptor 4 (CXCR4), human; experiment: cell-based or functional assay
[4] = target: T1, CXC chemokine receptor 4 (CXCR4), human; experiment: EasyCyte flow cytometry, IgG titration (12 points, three-fold) on Ramos cells naturally expressing CXCR4; RPE goat anti-human IgG detection
Description: The cells were harvested from culture flasks, washed 2 times with PBS (350×g, 5 min, 4° C.) and resuspended in PBS containing 0.2% BSA and 0.09% NaN₃. 1×10⁵ cells per well were aliquoted into V-shaped 96-well plates (Greiner Bio-One, Frikenhausen, Germany). The cells were centrifuged (350×g, 5 min, 4° C.) and resuspended in 50 μl IgG (50 μg/ml) in PBS containing 0.2% BSA and 0.09% NaN₃. Titration was done in twelve points and three fold dilution. […] Cells were washed, resuspended in 200 μl PBS with 0.2% BSA and 0.09% NaN₃, and transferred to a U-shaped 96 well Costar (Corning, Schiphol-Rijik, The Netherlands) plate for flow cytometry using an Easy Cyte device (Guava Technologies, Hayward, Calif., USA).

[5] = target: T1, CXC chemokine receptor 4 (CXCR4), human; experiment: cell-based or functional assay; remark: listed apart in the source
[6] = target: T1, CXC chemokine receptor 4 (CXCR4), human; experiment: flow cytometry (EasyCyte), IgG1 10 µg/ml on CCRF-CEM cells; PBS negative control 3.11
Description: The natural CXCR4⁺ expressing cell line CCRF-CEM was harvested from the culture flasks, washed 2 times with PBS supplemented with 0.2% BSA and 0.09% NaN₃ buffer and aliquoted at 1×10⁵ cells per well into V-shaped 96-well plates (Greiner Bio-One, Frickenhausen, Germany). Cells were pelleted by centrifugation (400 g, 5 min) and then incubated for 60 min at 4° C. with 50 μl IgGs diluted to 10 μg/ml in PBS supplemented with 0.2% BSA and 0.09% NaN₃ buffer. The supernatants were aspirated after a centrifugation step at 400 g for 5 min and the cells were washed another two times with 100 μl PBS supplemented with 0.2% BSA and 0.09% NaN₃ each wash was followed by a centrifugation step (5 min at 400 g). After, the cells were stained for 30 minutes at 4° C. with 50 μl of rPE-conjugated Goat anti-human IgG (AbD Serotec) diluted to 5 μg/ml in with PBS supplemented with 0.2% BSA and 0.09% NaN₃ and incubated for 30 minutes at 4° C. The cells were washed again and re-suspended in 200 μl PBS with 0.2% BSA and 0.09% NaN₃ and transferred to a U-shaped 96-well plate (Corning) for flow cytometry using an EasyCyte device (Guava Technologies, Hayward, Calif., USA).

T2 sequence (P79394 whole entry): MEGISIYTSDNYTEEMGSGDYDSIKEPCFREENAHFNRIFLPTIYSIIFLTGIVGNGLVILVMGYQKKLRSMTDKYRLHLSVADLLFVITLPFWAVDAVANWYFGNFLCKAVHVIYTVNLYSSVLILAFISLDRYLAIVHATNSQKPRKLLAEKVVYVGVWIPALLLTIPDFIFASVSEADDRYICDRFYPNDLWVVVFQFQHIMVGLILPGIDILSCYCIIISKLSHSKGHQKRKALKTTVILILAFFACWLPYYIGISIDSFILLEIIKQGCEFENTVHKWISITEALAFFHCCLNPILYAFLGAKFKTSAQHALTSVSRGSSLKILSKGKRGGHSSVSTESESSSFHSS
T1 sequence (P61073 whole entry): as the sequence (P79394 whole entry) above, with I24M, H35N, R38K, K146R, S176N, D214V counted along it

B1: C-1I24 scFv (scFv)
scFv: QVQLVQSGGGVVQPGRSLRLSCAASGFTFSSYGMHWVRQAPGKGLEWVAVISYDGSNKYYADSVKGRFTISRDNSKNTLYLQMNSLRAEDTAVYYCAKDLPITRGTGADYWGQGTLVTVSSKLSGSASAPKLEEGEFSEARVQSVLIQPASVSGSPGQSITISCTGTSSDVGGYNYVSWYQQHPGKAPRLMIYDVTSRPSGVSNRFSGSKSGNTASLTISGLQAEDEADYYCSSYAGSYSVVFGGGTKVTVLAAAGSEQKLISEEDLNSHHHHHH
notes: VH-linker-VL scFv expressed in E. coli TG1 from pHOG21; also called scFv C-1I24; C-1124
B1: binds [1]; binds [2].

B2: 9N10 IgG1 (antibody, V domains shown)
VH: QVQLQESGGGLVHPGGSLRLSCAASGFTFSSYWMHWVRQAPGKGLVWVSRINSDGSSTSYADSVKGRFTISRDNAKNTLYLQMNSLRAEDTAVYYCARKILGVGARSRRYFDYWGQGTMVTVSS
VL: DIVLTQTPDSLAVSLGETTTINCKSSQSVLHSSNNKNYLAWYQQKPGQPPKLLIYWASTRESGVPDRFSGSGSGTDFTLTISNLQPEDVAFYYCLQYSTFPRTFGQGTKVEIKR
notes: Full length human IgG1 with kappa light chain
With B2 the “IC50 of inhibition of SDF-1α induced calcium flux, CCRF-CEM cells, IgG” value [3] was 3.85 nM, the “fold efficiency in inhibition of calcium flux against C-9P21 IgG” value [3] was ~8 fold and the “EC50 (read off the curve)” value [4] was ~10 nM.

B3: C-9P21 IgG1 (antibody, V domains shown)
VH: QVQLQESGGGLVHPGGSLRLSCAASGFTFSSYWMHWVRQAPGKGLVWVSRINSDGSSTSYADSVKGRFTISRDNAKNTLYLQMNSLRAEDTAVYYCARKILGVGARSRRYFDYWGQGTMVTVSS
VL: ETTLTQSPGTLSLSPGERATLSCRASQSVVSNYLAWYQQKPGQAPRLLISGASNRATGISDRFSGSGSGADFTLTISRVEPEDSAVYYCQQFDKSTWTFGQGTKVEIKR
notes: Full length human IgG1 with kappa light chain; expressed from pLNO, protein A purified, monomer by SEC; also called IgG C-9P21
B3 was tested, and the “IC50 of inhibition of SDF-1α induced calcium flux, CCRF-CEM cells, IgG” value [3] was 29 nM, the “ADCC, EC50 (ng/mL), IgG” value [5] was 1850 ng/mL and the “ADCC, EC50, IgG, molar” value [5] was 12.3 nM. The “ADCC, Max killing (%), CCRF-CEM cells with human PBMCs, IgG” value (“ADCC, Max killing (%), CCRF-CEM cells” below) [5] was 63.5% and the “median value (EasyCyte fluorescence)” value [6] was 626.

B4: D-1K21 IgG1 (antibody, V domains shown)
VH: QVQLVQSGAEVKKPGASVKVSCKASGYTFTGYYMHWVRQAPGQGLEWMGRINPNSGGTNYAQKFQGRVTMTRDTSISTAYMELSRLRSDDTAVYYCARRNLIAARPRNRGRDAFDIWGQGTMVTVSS
VL: DIQMTQSPSTLSASVGDRVTITCRASQSIGGSLAWYQQKPGKGPNLLIYAASTLQSGVPSRFSGSGSGTEFTLTISSLQPEDSATYYCQHYESYPLSFGGGTKLEIKR
notes: Full length human IgG1 with kappa light chain; expressed from pLNO, protein A purified, monomer by SEC; also called IgG D-1K21
With B4 the “ADCC, EC50 (ng/mL), IgG” value [5] was 79.9 ng/mL, the “ADCC, EC50, IgG, molar” value [5] was 0.5 nM and the “ADCC, Max killing (%), CCRF-CEM cells” value [5] was 25.7%. For the same binder, the “median value (EasyCyte fluorescence)” value [6] was 179.

B5: C-1I24 IgG1 (antibody, V domains shown)
VH: QVQLVQSGGGVVQPGRSLRLSCAASGFTFSSYGMHWVRQAPGKGLEWVAVISYDGSNKYYADSVKGRFTISRDNSKNTLYLQMNSLRAEDTAVYYCAKDLPITRGTGADYWGQGTLVTVSS
VL: QSVLIQPASVSGSPGQSITISCTGTSSDVGGYNYVSWYQQHPGKAPRLMIYDVTSRPSGVSNRFSGSKSGNTASLTISGLQAEDEADYYCSSYAGSYSVVFGGGTKVTVLG
notes: Full length human IgG1 with lambda light chain; expressed from pLNO, protein A purified, monomer by SEC; also called IgG C-1I24; C-1124
With B5 the “CDC of Ramos cells in presence of human serum, EC50, IgG” value [3] was 0.7 µg/mL, the “ADCC, EC50 (ng/mL), IgG” value [5] was 49.2 ng/mL and the “ADCC, EC50, IgG, molar” value [5] was 0.3 nM. For the same binder, the “ADCC, Max killing (%), CCRF-CEM cells” value [5] was 65% and the “median value (EasyCyte fluorescence)” value [6] was 911.

B6: C-9P21 scFv (scFv)
scFv: QVQLQESGGGLVHPGGSLRLSCAASGFTFSSYWMHWVRQAPGKGLVWVSRINSDGSSTSYADSVKGRFTISRDNAKNTLYLQMNSLRAEDTAVYYCARKILGVGARSRRYFDYWGQGTMVTVSSKLSGSASAPKLEEGEFSEARVETTLTQSPGTLSLSPGERATLSCRASQSVVSNYLAWYQQKPGQAPRLLISGASNRATGISDRFSGSGSGADFTLTISRVEPEDSAVYYCQQFDKSTWTFGQGTKVEIKAAAGSEQKLISEEDLNSHHHHHH
notes: VH-linker-VL scFv expressed in E. coli TG1 from pHOG21; In the migration and ADCC assays it was cross-linked with anti-cMyc antibody; also called scFv C-9P21
With B6 the “IC50 of inhibition of SDF-1 induced migration of CCRF-CEM cells (Boyden chamber; scFv cross-linked with anti-cMyc)” value [3] was 2.9 µg/mL, the “IC50 of inhibition of ligand induced migration of CCRF-CEM cells, molar” value [3] was ~100 nM and the “ADCC, EC50 (ng/mL), scFv cross-linked with chimeric anti-cMyc IgG1” value [5] was 2.7 ng/mL. The “ADCC, EC50, scFv, molar” value [5] was 0.09 nM and the binding result [2] was “binds”.

B7: B-1M22 IgG1 (antibody, V domains shown)
VH: QVQLVQSGAEVKKPGSSVKVSCKASGGTFSSYAISWVRQAPGQGLEWMGGIIPIFGTANYAQKFQGRVTITADESTSTAYMELRSLRSDDTAVYYCARDRERWLQSAGDYWGQGTLVTVSS
VL: QPVLTQSPSVSVAPGQTARITCGGNNIGSKSVHWYQQKPGQAPVLVVYDDSDRPSGIPERFSGSNSGNTATLTISRVEAGDEADYYCQVWDSSSDHWVFGGGTKLTVLG
notes: Full length human IgG1 with lambda light chain; expressed from pLNO, protein A purified, monomer by SEC; also called IgG B-1M22
For B7, the “ADCC, EC50 (ng/mL), IgG” value [5] was 116 ng/mL, the “ADCC, EC50, IgG, molar” value [5] was 0.8 nM and the “ADCC, Max killing (%), CCRF-CEM cells” value [5] was 100%. The “median value (EasyCyte fluorescence)” value [6] was 1080.

B8: B-1M22 scFv (scFv)
scFv: QVQLVQSGAEVKKPGSSVKVSCKASGGTFSSYAISWVRQAPGQGLEWMGGIIPIFGTANYAQKFQGRVTITADESTSTAYMELRSLRSDDTAVYYCARDRERWLQSAGDYWGQGTLVTVSSKLSGSASAPKLEEGEFSEARVQPVLTQSPSVSVAPGQTARITCGGNNIGSKSVHWYQQKPGQAPVLVVYDDSDRPSGIPERFSGSNSGNTATLTISRVEAGDEADYYCQVWDSSSDHWVFGGGTKLTVLAAAGSEQKLISEEDLNSHHHHHH
notes: VH-linker-VL scFv expressed in E. coli TG1 from pHOG21; also called scFv B-1M22
B8: binds [2].
